Patent US20260216293A1, “METHODS AND AGENTS FOR TREATING RESPIRATORY INFLAMMATION AND ASSOCIATED DISEASES AND CONDITIONS” (AROA BIOSURGERY LIMITED, priority 2023, published 2026)

Experiments:
Format in all cases: in vivo, C57BL/6 mice
[1] = tested on: murine model of respiratory inflammation (IT LPS); test: MPO levels of BALF in LPS-induced murine model of respiratory inflammation; conditions: groups 4, 5 and 6 (2.5, 25, 100 μg/animal IV) at 6 hours and 24 hours; FIG. 6
Method: (§1) At −1 h (1 hr before the lipopolysaccharide (LPS) administration), animals were treated with: Vehicle for groups 1 and 2 via an intravenous route (200 μL); dexamethasone (5 mg/kg) as a positive control (group 3) via an intraperitoneal (IP) route (5 mg/kg, 200 μL); MD31-170 for groups 4-6 via an intravenous (IV) route at the appropriate dosage (200 μL).
After administration of anesthesia by sodium pentobarbital, the mice underwent intra-tracheal (IT) instillation of a nonlethal dose of LPS from E. coli 0111: B4 (Sigma-Aldrich, St. Louis, MO, USA) at 5 mg/kg dissolved in 100 μl PBS to induce acute respiratory inflammation. LPS (Sigma L4391, O111: B4) lyophilized powder was resuspended in 0.9% saline to give aliquots at 2.5 mg/ml which were stored at 20° C. […]
(§2) Lungs were harvested from each animal and weighed. […] The cell pellet was resuspended in 100 μL PBS and the number of total cells was counted using Cell Counter model R1 (Olympus, Tokyo, Japan). […] Neutrophil counts were quantified using a light microscope by counting a total of 200 cells/slide at 40× magnification.
MPO levels were evaluated from an aliquot of BALF in an MPO assay using Abcam kit (Cat. Ab155458) according to manufacturer's instructions.

[2] = tested on: murine model of respiratory inflammation (IT LPS); test: BALF neutrophil count in LPS-induced murine model of respiratory inflammation; conditions: all assessed timepoints (6, 24, 72 hours); FIG. 5
Method: as §1
(§3) After administration of anesthesia by sodium pentobarbital, the mice underwent intra-tracheal (IT) instillation of a nonlethal dose of LPS from E. coli 0111: B4 (Sigma-Aldrich, St. Louis, MO, USA) at 5 mg/kg dissolved in 100 μl PBS to induce acute respiratory inflammation. LPS (Sigma L4391, O111: B4) lyophilized powder was resuspended in 0.9% saline to give aliquots at 2.5 mg/ml which were stored at […]. At time=0 h, animals in vehicle group 1 were administered PBS (40 μL) via an IT route and animals in groups 2-6 were administered LPS (40 μL) at 5 mg/kg by an IT route to induce acute respiratory inflammation. Termination occurred at either 6 h, 24 h or 72 h with each animal weighed at the endpoint.
as §2

[3] = tested on: murine model of respiratory inflammation (IT LPS); test: Lung histological pathology (H&E, lung injury score) in LPS-induced murine model of respiratory inflammation
Method: as §1, §3
The whole lung was fixed in 10% Neutral Buffered Formalin (NBF) and embedded in paraffin and then cut into 4 μm sections. Then, the sections were deparaffinized and stained with hematoxylin and eosin (H&E) for histological evaluation.
The severity of lung tissue inflammation was evaluated using lung injury score as follows. The severity of lung damage was scored based on the following histologic features: alveolar congestion, hemorrhage, infiltration of neutrophils in airspace or vessel wall, and thickness of alveolar wall/hyaline membrane formation. Each item was graded on a five-point scale from 0 to 4:0 (minimal damage), 1 (mild damage), 2 (moderate damage), 3 (severe damage), and 4 (maximal damage).

[4] = tested on: murine model of respiratory inflammation (IT LPS); test: BALF cytokine analysis (MSD) in LPS-induced murine model of respiratory inflammation; conditions: IV, 1 h before LPS
Method: All animal experiments were performed in accordance with the guidelines of decreasing the amount of suffering, pain, and discomfort of the experimental animals. A total of 54 male C57BL/6 mice were used in this study. Mice between the ages of 7 to 8 weeks were obtained from IACUC approved laboratory animal supplier. Animals were acclimated for at least 4 days prior to the study. Animals were housed in a temperature-controlled room with a 12-hour light/dark cycle, with ad libitum access to water and irradiated laboratory chow throughout the study. Animals were individually identified by ear tags. Animals were weighed one day prior to the start of the study and stratified into 6 groups of 9 animals so that each group has roughly the same average weight. Animals were monitored for any form of discomfort as well as for clinical symptoms of distress or ambulatory discomfort.
A total of 54 male C57BL/6 mice (7 to 8 weeks old, body weight […]) were used in this study, as set out below in Table 2.
as §1, with “μL). […]” for “μL).”
as §2
BALF cytokines concentrations were evaluated from an aliquot of BALF using the 29-plex cytokine MSD Platform (Cat. K152167D) according to manufacturer's instruction.

[5] = groups 4, 5 and 6 vs dexamethasone 5 mg/kg IP, FIGS. 7-9

B1: MD31-170: recombinant MayDay polypeptide comprising amino acids 31-170 of ovine decorin, expressed in BL21 E. coli (protein)
chain: DEASGIGPEERFHEVPELEPMGPVCPFRCQCHLRVVQCSDLGLEKVPKDLPPDTALLDLQNNKITEIKDGDFKNLKNLHTLILINNKISKISPGAFAPLVKLERLYLSKNQLKELPEKMPKTLQELRVHENEITKVRKSV
modifications: Ovis aries
notes: recombinant MayDay polypeptide comprising amino acids 31-170 of ovine decorin, expressed in BL21 E. coli
[1]
  myeloperoxidase (MPO) in BALF: significantly reduced
[2]
  number of neutrophils in BALF: decreased significantly
[3]; 6, 24 and 72 hours post LPS-induction
  neutrophil score, inflammation score and interstitial inflammation score: dose dependence: dose dependent changes
[3]; 24 hours, group 6 (100 μg/mouse) compared to LPS control (group 2), FIG. 7B
  neutrophil score (histology): statistically significant decreases
[3]; 24 hours, group 6 (100 μg/mouse) compared to LPS control (group 2), FIG. 8B
  inflammation score (inflammation-neutrophilic alveolar score, histology): statistically significant decreases
[3]; 24 hours, group 6 (100 μg/mouse) compared to LPS control (group 2), FIG. 9B
  interstitial inflammation score (histology): statistically significant decreases
[3]; groups 4, 5 and 6 (2.5, 25, 100 μg/animal IV)
  lung injury score: consistently and substantially decreased
[3]; groups 4, 5 and 6 (2.5, 25, 100 μg/animal IV), H&E
  pathological changes in the lung (alveolar wall not intact, interstitial edema, inflammatory cell infiltration): alleviated
[3]; [5]
  lung damage relative to dexamethasone treated animals (group 3): comparable or less than
  positive effect on lung pathology relative to positive control dexamethasone (group 3): comparable to or better than
[4]; 6 hours post-administration, compared to LPS control group (group 2), FIG. 2A
  protein levels of TNF-α in BALF: significantly decreased
[4]; 24 hours post-administration, compared with LPS group (group 2), FIG. 3B
  protein levels of IFN-γ in BALF: significantly decreased
[4]; 24 hours post-administration, compared with LPS group (group 2), FIG. 4B
  protein levels of IL-6 in BALF: significantly decreased
